Reference: patent US9163227B2, “Anti-diabetic compounds” (PFIZER INC., priority 2011, dated 2015)

Test: Stability of linkers L1-L4 conjugated to FGF21 (LC-MS)
Assay type: physicochemical
Conditions: linker conjugated to FGF21ΔH-A129C
Method: The following experiment was performed to investigate the chemical stability over 2 weeks of the four linkers upon conjugation to FGF21: each linker was conjugated to FGF21, placed at +4° C. storage conditions, and aliquots were removed and quenched by freezing at specific time points, and linker stability was monitored by LCMS analysis.
The four linkers were dissolved in DMSO from lyophilized stock material. […] L1 was reacted with protein for 30 mins; L2, L3 and L4 were reacted for 2 hrs. The conjugation reaction was quenched by removal of excess linkers through size-exclusion resin. Conjugated FGF21ΔH-A129C protein was placed at +4° C. for stability storage. […] Analysis of linker stability was performed by LC-MS analysis to determine the relative amount of unconjugated protein, protein+linker conjugation, and single and double hydrolysis events of the conjugated protein+linker.
Linker hydrolysis is the critical analytical variable in this experiment. Hydrolysis was monitored by observing the subsequent addition of H2O to the FGF21-linker complex. A single addition of H2O, +(1) H2O, likely indicates the hydrolysis of the active AZD group that is present on all 4 linkers. The addition of a second H2O molecule, +(2) H2O, is a strong indicator of hydrolysis (eg—chemical instability) in the linker. L1 is particularly susceptible because of the presence of a maleimide functional group.

[1] = +4° C. storage, LC-MS, of total measured protein, 0 hrs

Row | SMILES | 0 linker (unconjugated protein) [1] [%] | 1 linker (protein+linker conjugation) (+4° C., 0 hrs) [%] | +(1) H2O (single hydrolysis) (+4° C., 0 hrs) [%] | +(2) H2O (double hydrolysis) (+4° C., 0 hrs) [%] | 0 linker (unconjugated protein) (+4° C., 24 hrs) [%] | 1 linker (protein+linker conjugation) (+4° C., 24 hrs) [%] | +(1) H2O (single hydrolysis) (+4° C., 24 hrs) [%] | +(2) H2O (double hydrolysis) (+4° C., 24 hrs) [%] | 0 linker (unconjugated protein) (+4° C., 72 hrs) [%] | 1 linker (protein+linker conjugation) (+4° C., 72 hrs) [%] | +(1) H2O (single hydrolysis) (+4° C., 72 hrs) [%] | +(2) H2O (double hydrolysis) (+4° C., 72 hrs) [%] | 0 linker (unconjugated protein) (+4° C., 168 hrs) [%] | 1 linker (protein+linker conjugation) (+4° C., 168 hrs) [%] | +(1) H2O (single hydrolysis) (+4° C., 168 hrs) [%] | +(2) H2O (double hydrolysis) (+4° C., 168 hrs) [%] | 0 linker (unconjugated protein) (+4° C., 336 hrs) [%] | 1 linker (protein+linker conjugation) (+4° C., 336 hrs) [%] | +(1) H2O (single hydrolysis) (+4° C., 336 hrs) [%] | +(2) H2O (double hydrolysis) (+4° C., 336 hrs (2 weeks)) [%]
1 | O=C(CCN1C(=O)C=CC1=O)NCCOCCOCCC(=O)Nc1ccc(CCC(=O)N2CCC2=O)cc1 [Compound L1, 3-(2,5-dioxo-2,5-dihydro-1H-pyrrol-1-yl)-N-(2-(2-(3-oxo-3-(4-(3-oxo-3-(2-oxoazetidin-1-yl)propyl)phenylamino)propoxy)ethoxy)ethyl)propanamide] | 13 | 49 | 30 | 8 | 14 | 41 | 34 | 11 | 14 | 40 | 35 | 11 | 10 | 33 | 40 | 18 | 12 | 28 | 41 | 18
2 | CC1=CC(=O)N(CCC(=O)NCCOCCOCCC(=O)Nc2ccc(CCC(=O)N3CCC3=O)cc2)C1=O [Compound L2] | 22 | 45 | 27 | 6 | 23 | 43 | 26 | 8 | 24 | 37 | 32 | 8 | 24 | 40 | 29 | 7 | 26 | 38 | 28 | 8
3 | CC1=CC(=O)N(CCOCCOCCC(=O)Nc2ccc(CCC(=O)N3CCC3=O)cc2)C1=O [Compound L3] | 19 | 45 | 30 | 6 | 18 | 47 | 27 | 8 | 19 | 43 | 30 | 8 | 19 | 43 | 29 | 8 | 20 | 43 | 29 | 8
